Drawing on article PMC2704923, this text covers Kd for three substances.

For series [1], the system named is CENP-N R124A (Homo sapiens). The series is described as follows: EMSA. Background: Mobility shift assays separate free from complexed probe on a gel.
Series [2] concerns CENP-N K15A (Homo sapiens). The series is described as follows: EMSA.
Series [3] concerns the target H3^CATD mononucleosome, reconstituted with alpha-satellite DNA. The series is described as follows: native gel or EMSA.
The subject of the next series is CENP-N (Homo sapiens). The series is described as follows: EMSA.

Chain of CENP-N (wildtype), 35S-labelled, in vitro translated (Q96H22 whole entry): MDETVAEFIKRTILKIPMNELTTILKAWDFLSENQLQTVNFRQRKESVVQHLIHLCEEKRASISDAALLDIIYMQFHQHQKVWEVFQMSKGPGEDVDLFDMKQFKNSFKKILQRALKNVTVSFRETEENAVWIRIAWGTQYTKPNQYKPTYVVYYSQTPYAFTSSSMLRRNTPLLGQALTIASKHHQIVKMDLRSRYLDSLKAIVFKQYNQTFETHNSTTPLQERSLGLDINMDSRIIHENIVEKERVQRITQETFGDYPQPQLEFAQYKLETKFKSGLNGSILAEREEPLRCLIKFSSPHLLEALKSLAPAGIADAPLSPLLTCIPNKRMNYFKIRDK

What is called Kd is the free concentration of one partner at which half of the binding sites on the other are occupied at equilibrium, for simple one-to-one binding. A high value points to lower affinity. Turning to CENP-A nucleosome, alpha-satellite, the Kd in series [1] amounted to 72 nM; in series [2] it was 297 nM.

Substance “CENP-N (wildtype), 35S-labelled, in vitro translated (from UniProt Q96H22 1-339) (natural protein)” registered an equilibrium dissociation constant (Kd) in series [3] of 163 nM. That is a sub-micromolar value.

As to H3CATD nucleosome, alpha-satellite, the Kd in the series on CENP-N (Homo sapiens) worked out at 163 nM.
